Patent publication US20260241035A1, “FUNCTIONAL NUCLEIC ACID MOLECULE AND METHOD” (THE UNIVERSITY COURT OF THE UNIVERSITY OF EDINBURGH, priority 2022, published 2026)

Test system: GSC7 cells
Experiment: Nano-Glo Dual-Luciferase Reporter (Nanoglo DLR) assay of enhancer activity, fold change to mCMV
Assay type: cell-based, human
Conditions: expression fold change of the individual enhancer compared to mCMV
From the text: We chose an arrayed library format, with 160 bp enhancer fragments individually cloned into separate plasmids and arrayed in 96 well plates. These 160 bp were synthesized as a single pool of oligos, then randomly cloned into the plasmid and isolated. 20 bp×2 were needed for PCR amplification of the pool and so a library of 200 bp fragments was synthesized (Twist Biosciences). To meet our oligo synthesis strategy, ChIP-seq peaks expressed by GSCs were merged into a single oligo. This oligonucleotide pool was PCR-amplified (using limited cycles to reduce bias and ‘jackpot’ products meaning products which are easier to amplify will overtake the oligonucleotide pool) and cloned into the expression vector by an efficient Golden Gate reaction. 4579 individual plasmids were then randomly picked, isolated and plated as an arrayed plasmid DNA library on 96 well plates (×48). The bacterial colony picking and production of plasmid minipreps were supported by the Edinburgh Genome Foundry (S. Rosser). This library was then screened using the optimised Nanoglo DLR assay (Nano-Glo Dual-Luciferase Reporter Assay, Promega) in 384 well format. Each plate was transiently transfected together with PGK-FFLuc in a 1:10 ratio into GSC7 cells. 2 days later a Nanoglo DLR assay was performed and assayed on a plate reader.
Cells were seeded in 384 well plates using a multidrop and transfected the following day using the CyBio Felix. Two days later the experiment was terminated with a Nanoglo DLR assay and all hits with a fold change to mCMV greater than 10 were Sanger sequenced and mapped back to the genome.
Cells were seeded at the required density. The following day the transfection was carried out. For this the Plus reagent and Lipofectamine LTX (Life Technologies, 15338030) were each diluted in half the volume of Opti-MEM I Reduced-Serum Medium (further referred to as Optimem) (Life Technologies, 31985062). Following this step, the Plus reagent/Optimem premix was added to all DNA samples followed by the Lipofectamine LTX/Optimem premix. The transfection mix was incubated for 5 min at room temperature and then carefully dropped on the cells. Generally, no media change was carried out. Cells were analysed two days following transfection.
This assay consists of two steps. The transfection was carried out using a normalisation plasmid PGK-Firefly-Luciferase (Promega, E5011) that was transfected in a 1/10 ratio with the plasmid of interest. First, the Firefly Luciferase activity is measured which allows to normalise to transfection efficiency. In a second step, the activity of Nanoluc is determined which is the readout of the plasmid of interest. Cells were washed 3× with PBS and 20 μl was left in the 96 well plate after the final wash (25 μl in 384 well). Oneglo buffer was added and the plate was shaken for 5 min at 480 rpm to allow cell lysis. 20 μl cell lysate in 96 well format or 25 μl cell lysate in 384 well format was then transferred into the corresponding opaque white plate and luminescence was measured at for 0.1 s per well using the Ensight Multimode Plate Reader. For the following Nanoluc reaction in a 96 well format 2 μl cell lysate was transferred into an opaque white plate containing 40 μl PBS, and 20 μl Stopglo buffer, supplemented with substrate, was added to each well. In a 384 well format 20 μl Stopglo buffer containing substrate were added on top of the undiluted cell lysate. The plate was shaken again for 5 min at 480 rpm to quench the firefly luciferase reaction and ensure good mixing. Nanoluc activity was measured for 0.1 s per well, again using Ensight Multimode Plate Reader.
Data obtained by the Nanoluc reaction was normalised to Firefly reaction to account for well-to-well variability of transfection efficiency. Normalised data were used to calculate the fold change to the empty vector control mCMV.

Molecule | Fold change (Median)
ID1737: enhancer fragment, SEQ ID NO: 10 (nucleic acid) DNA: CAACGTTTTTGGCAGATGCAGCTCTTTCTGAACAGTAAGTCATTGTTGAGTGACATGAATAGGACGAGAGCTACAGAAAATGAAGGTTTCAAAAGATTGTCTAAAACAAAAGTCCTTTCAGTCCCGTATTCAGAGTT | 77.1 fold
ID2339: enhancer fragment, SEQ ID NO: 9 (nucleic acid) DNA: GTCGGCGGAACTGAGTCTCCTTTGTGGAGCCCCTCATTTGCATGATAAACCCCGGGGACAAAGTGTGTTCTTGTTACTTGGACTGTTTCTTGGAAACTGCTGCTACCTGGAGCGAGTGAACACAGGGCAAGTATTCTCGCCCACAGCAACGTGTCATTGA | 79.6 fold
CSE014: clustered SOX dimer motif enhancer, SEQ ID NO: 47 (nucleic acid) DNA: GCCTTTTAGCTGATTAACAAATACAGTGAATTTAACTTTGTAGATTCTTAACATTTAAAGACAACAGTCTAAGGCAATTTAAAGTATATTCTGCCAATCAGTTGTTGAGTTAGACCACCCATAGCCTTTTTTTATTCTTCATTGTTTGAATAATATGGGAGGAAATTTAGTGTATACTCTCTTCTTCCTGTATTTTCCAGTTAGATTAAGCTGTTGTCTTCACAATTGCCTCCCAGCTGCTGTGACTTGTGAAAACAACAGACCCTGCTCTGTTGTCTGGAGAAAGCCGGGATTGTTATGAGTAACTTTATTGCAGGCACATGAGTGTGTTAAGACTTTAAAACACGCTCAAATGTCATGTGCACACCCAATGACGGGCAAGAATAATTATGAAAAAACAAGAAATCTATGTCTATGAAACCGTGTTGGACAAAATGGGCCATTCATTGTGTTCCCCTGGGAATGCCTGGACTCTGCAGTCAGAAAACAAAAAAGGCACTTTTTTCCTGCCGTAGGCTGAATGCTTAGCTTTGCCATCTGAGCCCTAAGAAAACATGGGCCCCTCTACTGCTGGCGCACCCACGCACACTAAAAAATATTAATGCCTCTCTCTCCTTACTTTTTTCCAGGCATTCCCTCGTGTAGGCTGTAGCCAATATAATGTCAACACAAA | 27.7 fold
CSE031: clustered SOX dimer motif enhancer, SEQ ID NO: 52 (nucleic acid) DNA: CAGAGGAGAGAGGAGGTCATTTGGGACCATTTACTCATGCGAGAGTCACTGCCCCATGCTAAGATTTCCCCTAAAAATAAAATGATAAGATAATAACTCATAATGCTCTCCCCAAATCAGTACCACACAGACCCCCCTCTTCTGTTTGCTCAGACCCCCGCTCTCCAGCACAAAGTCTTTATTGGTCTCCCTGCAGGGGTGAAAATAAAGGGGGTTTTGTTCTTCTCCTCCCCCTCCCCCCTCGAAGGGCTGAGTGAGTTTATCTGACACTGCAGCAGTCTTTGTAAACTGAGTGTCCCAGGATAAACGCTCCCTTAAGAGTCGCTTGGCCTGGGACAGAGGGACCCTCTCCAGAGGAGAATGGGGAGCTTGTTCCAATGGTCTTTTAATATGGGGGGCGGGGTGTCACCAAGGACAGGCCTCCAGCACACTCTCACAGAAGGGTCTCTGTCCTGAGGCTACAGTGGAGGGAATTCTTAAAGACACAGATGCTGAAAAGGGGGAAGGAATTTTTTTTTCCCCTAAGGGGAGGGGAGGGAGGTTAGGGCGGGAAGGAGAAGGGGGAGTGGCGAGGACTCCTCATTCCCCAGAACAATTCCAGTTACAACAAGGCGTCTCTAT | 249.3 fold
CSE074: clustered SOX dimer motif enhancer, SEQ ID NO: 51 (nucleic acid) DNA: ATACATTTTAGCACCAAACACAATTTAATAACAGGGCACAGAGGCCGCAAAGCCTCCTGATTCTGTTCCATTACTAATTTATCAGGGGCTGAAAGCAACCAAACTTAGGATCCCAGGCAGACAATGGAGCCTTTGAGGGGCAAGGGAAGCATCATTTAAAAGGAAAGCATTACCATTCTAAAATAATGGCAAAGCACATGAACTGAGTGCTCTGAAAGAGAGCACTACAAAAAAGGTATTCTCAGCTTAAATGCCCCAAACACAAAAGCTTTTAGTTGGGACTTAGACGGGAAAAAGAAAATAGCTCCCAATAAATTGGTTTTACCAGTATCCTTTTGTGTGTGCTGGTGCCAAGGGGGCGAGGGTACAGGCAAAGCGTGATTTTCCAAAACCTAGCTGAATTATGTTTCTTCTTTAGAACAAAACCCAACATTTTGCTAATGAGGATAAAGACAGTAAAACTGATATTCCTGTGCTATTACTAACTTGG | 250.6 fold
CSE061: clustered SOX dimer motif enhancer, SEQ ID NO: 48 (nucleic acid) DNA: GAACAGCACTTAAATATTAATAGCATCACTGGGAAAACACGACAGCTATTTCCCTGTTTTCTGCAGCTCAATGAAGAGTTGTTCAGTGCAGACCCCAGTGCTCTTGCCTCATGAATGGACGTGATTGTGGGGACATCATCTCCTACTAAGGCAAAACGTGACACTGAGAACAAAGGCTGGTTTTTAGCCTGATGTGATGAGCTCACCCCAGTGCCCATGTGGGGACTTTGAAGCTCGTCCAGGTGCCAGTTTTCTGTGTATATGACATTCTTGGTTGGGGAGGGTGTGGACTGGGCAGCAGGCTTT | 58.3 fold
CSE054: clustered SOX dimer motif enhancer, SEQ ID NO: 50 (nucleic acid) DNA: GCCAACAACTCATATAGTGGAGGCTTGAGCACACCATGCTTATTCCCAGAGTTCCAATGCTCTGCTTTTGAACCATTACCATGCCTTTCAGCAGCACTGTCAACAGAGCTCAGAGAAGGTCTTGAACTCCAGAGAATGAATGAGATATGCCAAATGAAGCATAATTACTTTATTGACGTCATTCAGCTTTCAACTCACATTTAATGAGAAAGCTTCTACTGCTTGAAACAGTGGGCCATTTGTAGCACATTATGCAAATGATAAGACTAATCTTTTGCATTATACATAAGAGCTGCTTATTGTGCATTAACTAATTTATCTGACTAGGAAGGGGCTATGAATGCTGATTTTTATTAAGCTCTTCATTAAGTGAAAATGTAGGCATGGCAAGTGCATAT | 65.7 fold
CSE006: clustered SOX dimer motif enhancer, SEQ ID NO: 53 (nucleic acid) DNA: AGGAAGAAGCATGCTGGGTCATTTTTGCCTTGTTTCTAGCTGCATGAATTGAAAAGCCAGGCCCAGGTTCAATGCATCATTCTTGAAGCAGTGAACAAAATCCCTCTTTGTTCCCCAGTGAAACTTATCTCTGAAGAGCTGCACTACTTCCTGTGAGATATAGCCCTGCAGATGTGTCGTGGGAGACCCGCCCGGCTGCACTGCCTTCCATAAAAGTGCAAGAATGGGCACTTTGTACTGCTGGACTGAAAATGACACTCACTCTTCTGATCCCCACTGGGGTTACCAAGTGGGCAAAACTTCCTGCTTAGAGGAGGGGTCATAGACAGCAGGGGGAGTGTGTGATTTTGTTTTGTTCCTTTGTGAATTTGTTTAGCTATTTATAGAGCTAAAGGAGAAAGCAAACGGGCACAATGTAGCACAGTGTTTTTCAAAGTGTATTCCATGGAACCCTTTCGTGGGTTGCAGACCCCAGGGGTGGAGGCAGAGGATGGGGTGGTGACAGCAGCAGGTGCTGTCCAGGGCCTTCTGTCT | 524.3 fold
ID0876: enhancer fragment, SEQ ID NO: 8 (nucleic acid) DNA: GAGCAGGCAGTCATTTGGTTCCCTTCTCTGAATGCATTGGCTCTGATCCACGGCGCCTCAGGAAGTGAAAGGGAGCAGGCAGTGAGGCCAAGCCATGAATGTTGGGCCCTTTTCTTAGAAAACAAAGGGTTCACTTTAGGCTAGGAGGAAACATCCGGGG | 91.1 fold
CSE075: clustered SOX dimer motif enhancer, SEQ ID NO: 49 (nucleic acid) DNA: ATAAGCCCTTTAAATTAAATCTTTATGCAGATTCTATTTTATACTCCAAACTTTTCATGGAGCCTTGTGTAATTCTGATGTGTAAACCAACAAACAGAGAGGCTCTGTGTATGGAGTAGCTGGTTTGGATACCAGCTGGCTTGGCTGTGCGCCTTTCTAATGGTAATGAAGTCACACAGCTGCTAGGACAATCAGCTGGAGTTCAGATTGTCACTAGCTAAATGGATATCCATTGACTAGCTTCTTATCCGGACTCATTAAAGTTTAGTATTGACAAATAGTGGCTGGAGGTTTACAACTAAGAGGCATGTAGAAATGAACTTGTTGACTATTTTTTCCCTATAGCTTTTGCTTTGTGATTCACAGAATGTCATTCATC | 58.1 fold
